# Results reported in US6465220B1, “Glycosylation using GalNac-T4 transferase” (GlycoZym ApS, priority 1998, dated 2002).
# B1: GalNAc-T1 (Homo sapiens) (protein)
# chain: GLPAGDVLEPVQKPHEGPGEMGKPVVIPKEDQEKMKEMFKINQFNLMASEMIALNRSLPDVRLEGCKTKVYPDNLPTTSVVIVFHNEAWSTLLRTVHSVINRSPRHMIEEIVLVDDASERDFLKRPLESYVKKLKVPVHVIRMEQRSGLIRARLKGAAVSKGQVITFLDAHCECTVGWLEPLLARIKHDRRTVVCPIIDVISDDTFEYMAGSDMTYGGFNWKLNFRWYPVPQREMDRRKGDRTLPVRTPTMAGGLFSIDRDYFQEIGTYDAGMDIWGGENLEISFRIWQCGGTLEIVTCSHVGHVFRKATPYTFPGGTGQIINKNNRRLAEVWMDEFKNFFYIISPGVTKVDYGDISSRVGLRHKLQCKPFSWYLENIYPDSQIPRHYFSLGEIRNVETNQCLDNMARKENEKVGIFNCHGMGGNQVFSYTANKEIRTDDLCLDVSKLNGPVTMLKCHHLKGNQLWEYDPVKLTLQHVNSNQCLDKATEEDSQVPSIRDCNGSRSQQWLLRNVTLPEIF
# notes: Control constructs pAcGP67-GalNAc-T1-sol, pAcGP67-GalNAc-T2-sol, pAcGP67-GalNAc-T3-sol, and pAcGP67-O^2-sol were prepared as previously described; made in house; host or cells: insect cells (baculovirus, pAcGP67)
# Substrate: C[C@H](NC(=O)[C@H](C)NC(=O)[C@@H](NC(=O)[C@@H](NC(=O)[C@H](CCC(=O)O)NC(=O)[C@@H]1CCCN1C(=O)[C@@H]1CCCN1C(=O)[C@H](C)NC(=O)[C@H](CO)NC(=O)[C@H](CO)NC(=O)[C@H](CO)NC(=O)[C@@H]1CCCN1C(=O)[C@@H]1CCCN1C(=O)[C@H](C)NC(=O)[C@@H]1CCCN1C(=O)[C@@H](NC(=O)[C@@H](NC(=O)[C@H](C)NC(=O)[C@H](CO)NC(=O)[C@@H]1CCCN1C(=O)[C@@H](NC(=O)[C@@H]1CCCN1C(=O)[C@@H]1CCCN1C(=O)[C@@H](N)CS)[C@@H](C)O)[C@@H](C)O)[C@@H](C)O)[C@@H](C)O)[C@@H](C)O)C(=O)O
# Test: GalNAc-transferase assay with purified recombinant GalNAc-T1
# Type: biochemical, human
# Settings: other: acceptor substrate; pH 7.5
# Procedure: The following examples are provided to illustrate certain preferred embodiments of the invention, and should be considered as illustration and not as limitation. In the examples, GalNAc-transferase assays were performed in 50 μl total reaction mixtures containing 25 mM cacodylate (pH 7.5), 10 mM MnCl2, 0.1-0.25% Triton X-100, 150-200 μM UDP-[^14C]-GalNAc (4,000 cpm/nmole) (Amersham) and 0.06-1 mM acceptor peptides. Peptides were either synthesized or obtained from Carlbiotech (Copenhagen), or Neosystems (Strasbourg), and quality was ascertained by amino acid analysis and mass spectrometry. Peptides Muc-1a, Muc-1b, and TAP24, were derived from the tandem repeat of human MUC1, Gendler et al., J. Biol. Chem. 265:15286 (1990), and Muc2, Muc5AC, and Muc7 from the tandem repeats of MUC2, MUC5AC, and MUC7, respectively. Gum et al., J. Biol. Chem. 264:6480 (1989); Porchet et al., Biochem. Soc. Trans. 23:800 (1995); Bobek et al., J. Biol. Chem. 268:20563 (1993). GalNAc4TAP24 was produced by in vitro glycosylation using GalNAc-T2 as described in Wandall et al., J. Biol. Chem. 272:23503 (1997). Products were quantified by scintillation counting after chromatography on Dowex-1, octadecyl silica cartridges (Bakerbond), or HPLC (PC3.2/3 or mRPC C2/C18 SC2.1/10 Pharmacia, Smart System). Products produced by in vitro glycosylation were in most cases also confirmed by mass spectrometry. […]
protein,measurement,value
B1,Km,40 µM
same,Vmax,0.76 nmol/min/µg
